According to paper doi:10.1101/2025.07.09.663820 (bioRxiv, 2025):

B1: Nb-aCHIP13 (VHH)
VHH: QLQLVESGGGLVQAGGSLRLSCATSGTTFRLNTMGWYRQAPGKQRELVATISRDFKTNYADSVKGRFTISRDNAKHTVDLQMNSLTPEDTAVYYCLVRDQREWYGPEYDNWGRGTQVTVSS

Tests used:
[1] = molecular target: CHIP13 extracellular domain (residues 33-253) (Lotus japonicus); test: SEC
[2] = molecular target: CHIP13 extracellular domain (residues 33-253) (Lotus japonicus, UniProt D3KU00, N-glycans (one on N143))

| Molecule | stoichiometry N [1] | Kd [2] |
| --- | --- | --- |
| CHIP13 extracellular domain (residues 33-253) (domain or fragment) | 2 | – |
| B1 | – | 8.1 nM |
